In patent publication US20230235333, “APTAMER FOR IL-21 AND USE THEREOF” (RIBOMIC INC, published 2023):

Tests used:
Conditions in all cases: tags: PeproTech
IL-21 (interleukin-21) [1] = target: T1, IL-21 (interleukin-21) (Homo sapiens, UniProt Q9HBE4 SEQ:25-162); assay: cell_activity; 10 nM aptamer
Experimental: (§1) After overnight culture, the same medium was used to seed 2×10⁴ cells per well for testing. Human IL-21 alone or a mixed solution of human IL-21 and aptamer was added thereto and the cells were cultured for 16 hr. The final concentration of human IL-21 was adjusted to 0.05 nM. After 16 hr, the culture supernatant was collected and IFN-γ contained in the supernatant was quantified by sandwich ELISA method. An ELISA Kit manufactured by R&D Systems or Diaclone was used for quantification. After quantification, the inhibitory rate was calculated using the following formula.
Whether these aptamers bind to human IL-21 and inhibit the function thereof was evaluated by a method similar to that in Example 1. Aptamers were obtained by transcription using double-stranded DNA as a template. The evaluation of inhibition in the cell assay system was performed at a nucleic acid final concentration of 10 nM. […] In the Table, “n.d.” indicates unmeasured.

IL-21 (interleukin-21) [2] = target: T1, IL-21 (interleukin-21); assay: cell_activity; 1 nM aptamer; 100.0 at 0.2 nM
Experimental: as §1
Whether these aptamers bind to human IL-21 and inhibit the function thereof was evaluated by preparing the aptamers by chemical synthesis and using a method similar to that in Example 1. The evaluation of inhibition in the cell assay system was performed at nucleic acid final concentrations of 1 nM and 0.2 nM. […] In the Table, “n.d.” indicates unmeasured.

IL-21 (interleukin-21) [3] = target: T1, IL-21 (interleukin-21); assay: cell_activity; 1 nM aptamer; 100.0% at 0.1 nM
Experimental: as §1
Whether these aptamers bind to human IL-21 and inhibit the function thereof was evaluated by preparing the aptamers by chemical synthesis and using a method similar to that in Example 1. The evaluation of inhibition in the cell assay system was performed at nucleic acid final concentrations of 1 nM and 0.1 nM. […] In the Table, “n.d.” indicates unmeasured.

IL-21 (interleukin-21) [4] = target: T1, IL-21 (interleukin-21); assay: cell_activity; IFN-gamma secretion from NK92 cells stimulated with human IL-21
Experimental: as §1
Whether these aptamers bind to human IL-21 and inhibit the function thereof was evaluated by preparing the aptamers by chemical synthesis and using a method similar to that in Example 1. […] The evaluation of inhibition in the cell assay system was performed at nucleic acid final concentrations of 1 nM and 0.2 nM. In addition, in a cell assay system, the aptamer concentration (IC₅₀) at which IFN-γ secretion was inhibited by 50% by IL-21 stimulation was determined. In the Table, “n.d.” indicates unmeasured.

IL-21 (interleukin-21) [5] = target: T1, IL-21 (interleukin-21); assay: SPR; negative control, no binding
IL-21 (interleukin-21) [6] = target: T1, IL-21 (interleukin-21); assay: cell_activity; 10 nM aptamer, scored −
Experimental: as §1
Whether these aptamers bind to human IL-21 and inhibit the function thereof was evaluated by a method similar to that in Example 1. Aptamers were obtained by transcription using double-stranded DNA as a template. […] In addition, “n.d.” indicates unmeasured.

T1 sequence (Q9HBE4 25-162): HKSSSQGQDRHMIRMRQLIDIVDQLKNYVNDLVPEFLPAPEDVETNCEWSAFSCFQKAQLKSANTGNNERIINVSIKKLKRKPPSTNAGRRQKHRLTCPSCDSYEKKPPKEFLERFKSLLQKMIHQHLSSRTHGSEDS

GGACCGUCAACACGCGACUACUCGUGAUUGCCCGUCC (ssRNA, 2'-F all pyrimidines) [SEQ39]
activity (IL-21 (interleukin-21) [1]): 56.1 % inhibition

GGACCUCCAACACGCGACUACUCGUGAUUGCCCGUCC (ssRNA, 2'-F all pyrimidines) [SEQ40]
activity (IL-21 (interleukin-21) [1]): 42 % inhibition

GGACCUUCAACACGCGGCUACUCGUGAUUGCCCGUCC (ssRNA, as SEQ22(2) plus 5'-PEG 40 kDa; 3'-idT) [SEQ22(15)]
activity (IL-21 (interleukin-21) [2]): 100 % inhibition

GGACCUUCAACACGCGACUACCCGUGAUUGCCCGUCC (ssRNA, 2'-F all pyrimidines) [SEQ42]
activity (IL-21 (interleukin-21) [1]): 39 % inhibition

GGACCUUCAACACGCGGCUACUCGUGAUUGCCCGUCC (ssRNA, as SEQ22(1) plus 2'-OMe C4,U28,U29; 3'-idT) [SEQ22(2)]
activity (IL-21 (interleukin-21) [2]): 100 % inhibition

B1: SEQ22(1) (ssRNA)
RNA: GGACCUUCAACACGCGGCUACUCGUGAUUGCCCGUCC
modifications: 2'-OMe 1-3,9-14,20,21,24-27,30-32,34-37; 2'-F 4-8,15,18,19,22,23,28,29,33; 2'-OH G16,G17; 3'-idT
activity (IL-21 (interleukin-21) [2]): 100 % inhibition

GGACCUUCAACACGCGACUACUCGUGAUUGCACGUCC (ssRNA, 2'-F all pyrimidines) [SEQ43]
activity (IL-21 (interleukin-21) [1]): 43.7 % inhibition

GGACCUUCAACACGCGACGACUCGUGAUUGCCCGUCC (ssRNA, 2'-F all pyrimidines) [SEQ41]
activity (IL-21 (interleukin-21) [1]): 32.4 % inhibition

GACCUUCAACCCGCGGCUACUCGGGAUUGCCCGUC (ssRNA, as SEQ38(1) with PS after G15) [SEQ38(14)]
activity (IL-21 (interleukin-21) [3]): 100 % inhibition

GACCUUCAACCCGCGGCUACUCGGGAUUGCCCGUC (ssRNA, as SEQ38(1) with PS after G15,G16) [SEQ38(18)]
activity (IL-21 (interleukin-21) [3]): 100 % inhibition

GACCUUCAACCCGCGGCUACUCGGGAUUGCCCGUC (ssRNA, as SEQ38(1) with PS after G16) [SEQ38(15)]
activity (IL-21 (interleukin-21) [3]): 100 % inhibition

GACCUUCAACCCGCGGCUACUCGGGAUUGCCCGUC (ssRNA, as SEQ38 plus 5' 40 kDa PEG) [SEQ38(1)]
IC50 (IL-21 (interleukin-21) [4]): 0.02 nM

B2: SEQ49 negative control 51mer (ssRNA)
RNA: GGGAAGCUCCGUCGAGCUUUCCUGCAUAAGCUGUAUUGCAGCCAGCAUUUA
binding result (IL-21 (interleukin-21) [5]): no binding

GGACCUUCAACACGCGAUACUCGUGAUUGCCCGUCC (ssRNA, 2'-F pyrimidines) [SEQ14]
activity (IL-21 (interleukin-21) [6]): 13.3 % inhibition

GGACCUUCAACACGCGACACUCGUGAUUGCCCGUCC (ssRNA, 2'-F pyrimidines) [SEQ15]
activity (IL-21 (interleukin-21) [6]): 10.7 % inhibition

GGACCUUCAACACGCGACUCUCGUGAUUGCCCGUCC (ssRNA, 2'-F pyrimidines) [SEQ16]
activity (IL-21 (interleukin-21) [6]): 10.7 % inhibition
